The values that follow come from the RNAGym collection of RNA variant scans (doi:10.1073/pnas.2313332121).

The chains are these.
B1: TPR 5TU (parent)
chain: GGAUCUUCUCGAUCUAACAAAAAAGACAAAUCUGCCACAAAGCUUGAGAGCAUCUUCGGAUGCAGAGGCGGCAGCCUUCGGUGGCGCGAUAGCGCCAACGUUCUCAACUAUGACACGCAAAACGCGUGCUCCGUUGAAUGGAGUUUAUCAUG

Fewer inactive variants are shown than the library holds.

The variants in this data set derive from B1. As to the kind of experiment: polymerase ribozyme fitness, log enrichment relative to wild type (log ratio); higher = more active; in vitro selection for triplet polymerase activity. A digest of the protocol:
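The heterodimeric triplet polymerase ribozyme's subunits were each mutagenized into PCR-built libraries and transcribed. Every library was selected once, in triplicate, by annealing with a biotinylated primer, the partner subunit and triplets, incubating frozen at −7 °C, gel-excising extended constructs, capturing on streptavidin beads and running RT-PCR. Input and output libraries were Illumina-sequenced, with genotypes kept only at ≥10 input reads and ≥1 read per output. Fitness, from inverse-variance-weighted replicate averages, is the base-2 logarithm of genotype enrichment over wild-type enrichment.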
As for GGAUCUUCUCGAUCUAACAAAAAAGACAAAUCUGCCACAAAGCUUGAGAGCAUCUUCGGAUGCAGAGGCGGCAGCCUUCGGUGGCGCGAUAGCGCUAACGUUCUCAACUAUGACACGCAAAACCCGUGCUCCGUUGAAUGGAGUUUAUCAUG [C96U G124C], the “polymerase ribozyme fitness (log ratio)” value is -0.743.

As to GGAUCUUCUCGAUCUAACAAAAAAGACAAAUCUGCCACAAAGCUUGAGAGCAUCUUCGGAUGCAGAGGCGGCAGCCUUCGGUGGCGCGAUAGCGCUAACGUGCUCAACUAUGACACGCAAAACGCGUGCUCCGUUGAAUGCAGUUUAUCAUG [C96U U102G G141C], the “polymerase ribozyme fitness (log ratio)” value is -4.12.

With GGAUCUUCUCGAUCUAACAAAAAAGACAAAUCUGCCACAAAGCUUGAGAGCAUCUUCGGAUGCAGAGGCGGCAGCCUUCGGUGGCGCGAUAGCGCUAACGUUCUCAACUAUGACACGCAAAACGAGUGCUCCGUUGAAUGGAGGUUAUCAUG [C96U C125A U144G], the “polymerase ribozyme fitness (log ratio)” value is -0.161.

For the variant GGAUCUUCUCGAUCUAACAAAAAAGACAAAUCUGCCACAAAGCUUGAGAGCAUCUUCGGAUGCAGAGGCGGCAGCCUUCGGUGGCGCGAUAGCGCUAACGUUCUCAACUAUGACACGUAAAACGCGUGCUCCGUUGAAUGGAGUUUAUCAUG [C96U C118U], the “polymerase ribozyme fitness (log ratio)” value was -0.211.

For GGAUCUUCUCGAUCUAACAAAAAAGACAAAUCUGCCACAAAGCUUGAGAGCAUCUUCGGAUGCAGAGGCGGCAGCCUUCGGUGGCGCGAUAGCGCUAACGUUCUCAACUAUGACACGCAAAACGCGUUCUCCGUUGAAUGGAGUUUAUCAUG [C96U G128U], the “polymerase ribozyme fitness (log ratio)” value was -3.45.

Regarding GGAUCUUCUCGAUCUAACAAAAAAGACAAAUCUGCCACAAAGCUUGAGAGCAUCUUCGGAUGCAGAGGCGGCAGCCUUCGGUGGCGCGAUAGCGCUAACGUUCUCAACUAUGACACGCAAAACGGGUGCUCCGUUGAAUGGAGUUUAUCAUG [C96U C125G], the “polymerase ribozyme fitness (log ratio)” value was -0.976.

With GGAUCUUCUCGAUCUAACAAAAAAGACAAAUCUGCCACAAAGCUUGAGAGCAUCUUCGGAUGCAGAGGCGGCAGCCUUCGGUGGCGCGAUAGCGCUAACGUUCUCAACUAUGAUACGCAAAACGCGUGCUCCGUUGAAUGGAGUUUCUCAUG [C96U C114U A147C], the “polymerase ribozyme fitness (log ratio)” value is -4.07.

With GGAUCUUCUCGAUCUAACAAAAAAGACAAAUCUGCCACAAAGCUUGAGAGCAUCUUCGGAUGCAGAGGCGGCAGCCUUCGGUGGCGCGAUAGCGCUAACGUUCUCAACUAUGACACGCAAAACGCGUGCUCCGUUAAAUGGAGUUUAUCAUG [C96U G136A], the “polymerase ribozyme fitness (log ratio)” value stood at 0.246.

For GGAUCUUCUCGAUCUAACAAAAAAGACAAAUCUGCCACAAAGCUUGAGAGCAUCUUCGGAUGCAGAGGCGGCAGCCUUCGGUGGCGCGAUAGCGCUAACGUUCUCAACUAUGACACGCAAAACGCGUGCUCCGUUUAAUGGAGUUUAUCAUG [C96U G136U], the “polymerase ribozyme fitness (log ratio)” value was -2.74.

For GGAUCUUCUCGAUCUAACAAAAAAGACAAAUCUGCCACAAAGCUUGAGAGCAUCUUCGGAUGCAGAGGCGGCAGCCUUCGGUGGCGCGAUAGCGCUAACGUUCUCAACUAUGACACGCAAAACGCGUUCUCCGUUGAAUGGAGUUUCUCAUG [C96U G128U A147C], the “polymerase ribozyme fitness (log ratio)” value is -3.7.

As for GGAUCUUCUCGAUCUAACAAAAAAGACAAAUCUGCCACAAAGCUUGAGAGCAUCUUCGGAUGCAGAGGCGGCAGCCUUCGGUGGCGCGAUAGCGCUAACCUUCUCAACUAUGACACGCAAAACGCGUGCUCCGUUGAAUGGAGUUUAUCAUG [C96U G100C], the “polymerase ribozyme fitness (log ratio)” value was -3.97.

For GGAUCUUCUCGAUCUAACAAAAAAGACAAAUCUGCCACAAAGCUUGAGAGCAUCUUCGGAUGCAGAGGCGGCAGCCUUCGGUGGCGCGAUAGCGCUAACGGUCUCAACUAUGACACGCAAAACGCGUGCUCCGUUGAAUGGAGUUUAUCAUG [C96U U101G], the “polymerase ribozyme fitness (log ratio)” value amounted to 0.195.

Turning to GGAUCUUCUCGAUCUAACAAAAAAGACAAAUCUGCCACAAAGCUUGAGAGCAUCUUCGGAUGCAGAGGCGGCAGCCUUCGGUGGCGCGAUAGCGCUAACGUUCUCAACUAUGACAUGCAAAACGCGUGCUCCGUUGAAUGGAGUUUAUCAUG [C96U C116U], the “polymerase ribozyme fitness (log ratio)” value was -0.186.

Turning to GGAUCUUCUCGAUCUAACAAAAAAGACAAAUCUGCCACAAAGCUUGAGAGCAUCUUCGGAUGCAGAGGCGGCAGCCUUCGGUGGCGCGAUAGCGCUAACGUUCUCAACUAUGACAGGCAAAACGCGUGCUCCGUUGAAUGGAGUUUAUCAUG [C96U C116G], the “polymerase ribozyme fitness (log ratio)” value is 0.963.

For GGAUCUUCUCGAUCUAACAAAAAAGACAAAUCUGCCACAAAGCUUGAGAGCAUCUUCGGAUGCAGAGGCGGCAGCCUUCGGUGGCGCGAUAGCGCUAACGUUCUCAACUAUGACACGCAAAACGCGUGCUCCGUUGAAUGUAGUUUAUCAUG [C96U G141U], the “polymerase ribozyme fitness (log ratio)” value was -0.301.

Take GGAUCUUCUCGAUCUAACAAAAAAGACAAAUCUGCCACAAAGCUUGAGAGCAUCUUCGGAUGCAGAGGCGGCAGCCUUCGGUGGCGCGAUAGCGCUAACGUUCUCAACUAUGAUACGCAAAACGCGUGCUCCGUUGAAUGGAGUUUAUCAUG [C96U C114U]: the “polymerase ribozyme fitness (log ratio)” value is -2.66.

Consider GGAUCUUCUCGAUCUAACAAAAAAGACAAAUCUGCCACAAAGCUUGAGAGCAUCUUCGGAUGCAGAGGCGGCAGCCUUCGGUGGCGCGAUAGCGCUAACGUUCUCAACUAUGACACGCAAAACGCGUACGCCGUUGAAUGGAGUUUAUCAUG [C96U G128A U130G], for which the “polymerase ribozyme fitness (log ratio)” value was at most -4.2.

Regarding GGAUCUUCUCGAUCUAACAAAAAAGACAAAUCUGCCACAAAGCUUGAGAGCAUCUUCGGAUGCAGAGGCGGCAGCCUUCGGUGGCGCGAUAGCGCUAACGUUCUCAACUAUGACACGCAAAACGCGUGCUCCGUUGAAUCGAGUUUAUCAUG [C96U G140C], the “polymerase ribozyme fitness (log ratio)” value is -3.73.

On to GGAUCUUCUCGAUCUAACAAAAAAGACAAAUCUGCCACAAAGCUUGAGAGCAUCUUCGGAUGCAGAGGCGGCAGCCUUCGGUGGCGCGAUAGCGCUAACGUUCUCAACUAUGACACGCAAAACGCGUGCUCCGUUGAAUUGAGUUUAUCAUG [C96U G140U], for which the “polymerase ribozyme fitness (log ratio)” value is -3.33.
